The record followed here is PMC12474247.

Where “and” joins values, the source holds several entries; their conditions need not be identical. Equal entries are not always repeated.

This assay addresses small hepatitis delta antigen with C-terminal His6-tag (SHDAg-His6), native preparation (hepatitis D virus genotype 1). Briefly: SEC.

For “small hepatitis delta antigen with C-terminal His6-tag (SHDAg-His6), native preparation (natural protein)”, the stoichiometry N is 4 and 8.
